The values that follow come from patent publication US20060257397A1 (CRUCELL HOLLAND B V, published 2006).

One assay addresses T1, human CD1b (human, UniProt P29016 18-333).
T1 construct: whole, on cells; also called C1R-CD1b; CR1-CD1b
The experiment in a line: flow cytometry on C1R-CD1b transfectant. Here is the method: (§1) The human anti-CD1a IgG1 antibodies were validated for their ability to bind to CD1a transfected cell lines essentially as described for scFvs (see Example 3). The purified anti-CD1a antibodies were diluted to various concentrations (depicted in the figures) and detected with mouse anti-human IgGκ labeled with FITC or FITC-labeled streptavidin in the case of biotinylated human anti-CD1a antibodies. In addition to the cell lines C1R-CD1a and C1R mock transfected described in Example 3, the cell lines C1R-CD1b , C1R-CD1c , C1R-CD1d and B16-CD1a and B16 mock transfected were tested. Each staining was repeated three times and compared to the negative control irrelevant isotype control antibody called CR2027 using the Kolmogorov-Simov test. To calculate K-S statistics, an overlay of histograms of isotype control antibody and anti-CD1a antibody was made. The log shift between the peaks of the histograms was determined and used to calculate the D-value. The greater the log shift of the anti-CD1a antibody response peak from the isotype control antibody response peak, the larger the D-value.
(§2) No specific staining of any of the six human anti-CD1a monoclonal antibodies was detected on the C1R-CD1b or C1R-CD1d transfectants (see FIG. 4). Slight, but significant, staining (p<0.05) was detected for the two antibodies CR2114 and CR2117 on C1R-CD1c transfectants (see FIG. 4). […] In addition, staining was also carried out on freshly prepared mouse thymocytes, which express murine […] at low levels.

The target of the next assay is T2, human CD1c (human, UniProt P29017 18-333).
T2 construct: whole, on cells; also called C1R-CD1c; CR1-CD1c
T2 sequence (looked up): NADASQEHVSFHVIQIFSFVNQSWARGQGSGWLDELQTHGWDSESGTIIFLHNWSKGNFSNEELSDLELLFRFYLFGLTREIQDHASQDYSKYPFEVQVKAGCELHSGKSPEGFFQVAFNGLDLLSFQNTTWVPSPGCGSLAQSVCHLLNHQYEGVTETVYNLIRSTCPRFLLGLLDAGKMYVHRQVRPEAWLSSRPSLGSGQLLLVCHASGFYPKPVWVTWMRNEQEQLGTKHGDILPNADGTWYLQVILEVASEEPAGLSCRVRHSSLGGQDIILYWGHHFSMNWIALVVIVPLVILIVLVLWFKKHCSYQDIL
As to the kind of experiment: flow cytometry on C1R-CD1c transfectant. Here is the method: as §1
No specific staining of any of the six human anti-CD1a monoclonal antibodies was detected on the C1R-CD1b or C1R-CD1d transfectants (see FIG. 4). Slight, but significant, staining (p<0.05) was detected for the two antibodies CR2114 and CR2117 on C1R-CD1c transfectants (see FIG. 4). […]

For a further assay, the target named is T3, human CD1d (human, UniProt P15813 20-335).
T3 construct: whole, on cells; also called C1R-CD1d; CR1-CD1d
T3 sequence (looked up): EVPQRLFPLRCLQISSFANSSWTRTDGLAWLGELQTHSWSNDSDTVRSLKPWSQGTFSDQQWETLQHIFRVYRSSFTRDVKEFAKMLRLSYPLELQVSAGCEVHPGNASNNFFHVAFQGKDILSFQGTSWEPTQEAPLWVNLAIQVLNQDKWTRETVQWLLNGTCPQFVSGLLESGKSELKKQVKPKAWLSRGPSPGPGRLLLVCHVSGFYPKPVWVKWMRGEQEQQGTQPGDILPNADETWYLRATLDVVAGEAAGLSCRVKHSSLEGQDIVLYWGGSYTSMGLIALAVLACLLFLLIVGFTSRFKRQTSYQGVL
As to the kind of experiment: flow cytometry on C1R-CD1d transfectant. Here is the method:
as §1, §2
(In general: A flow cytometer gives signals particle by particle.)

Assay [1] concerns the target T4, murine CD1d (mouse, UniProt P11609 22-336).
T4 construct: whole, on cells; also called mouse thymocytes
T4 sequence (looked up): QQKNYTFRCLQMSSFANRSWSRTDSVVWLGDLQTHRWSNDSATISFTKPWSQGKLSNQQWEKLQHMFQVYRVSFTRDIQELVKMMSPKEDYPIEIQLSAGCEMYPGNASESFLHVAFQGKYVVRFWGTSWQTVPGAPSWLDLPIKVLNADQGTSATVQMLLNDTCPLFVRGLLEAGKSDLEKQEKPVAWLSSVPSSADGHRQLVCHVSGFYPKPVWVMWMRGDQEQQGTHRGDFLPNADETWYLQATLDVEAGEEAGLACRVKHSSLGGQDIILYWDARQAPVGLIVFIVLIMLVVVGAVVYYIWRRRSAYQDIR
The experiment in a line: flow cytometry on mouse thymocytes, K-S statistics against isotype control. Here is the method:
as §1, §2

For another assay, the target named is T5, murine CD1a (mouse).
T5 construct: whole, on cells; no such UniProt entry is known to me (mice are known to carry only CD1d genes); also called mouse thymocytes
The description is as above. Here is the method: as §1, §2

Assay [2] deals with T4, murine CD1d. As to the kind of experiment: flow cytometry on freshly prepared mouse thymocytes.
For assay [3], the target named is T6, human CD1a (human, UniProt P06126 17-327).
T6 construct: whole, on cells; also called C1R-CD1a; CR1-CD1a
As to the kind of experiment: flow cytometry on B16-CD1a transfectants, biotinylated antibody detected with FITC-labeled streptavidin; D-value versus isotype control CR2027. Here is the method: as §1
(§3) Binding curves were generated for the antibodies CR2113, CR2114, CR2117 and CR2118 by measuring binding on B16-CD1a transfected cells with FACS as above using the concentrations of antibody ranging from 0.01 to 10 μg/ml. […]

Assay [4] concerns the target T6, human CD1a. As to the kind of experiment: flow cytometry on B16-CD1a transfectants, unlabeled antibody detected with FITC-labeled mouse anti-human IgG kappa; D-value versus isotype control CR2027. Here is the method:
as §1, §3

For assay [5], the target named is T6, human CD1a. As to the kind of experiment: competition flow cytometry on B16-CD1a cells: unlabeled antibody for 30 min, then biotin-labeled CR2114 at 2.5 µg/ml, FITC-streptavidin. Here is the method: (§4) B16 mouse melanoma cells expressing human CD1a were stained with unlabeled CR2113, CR2114, CR2117, CR2118 or the negative control CR2027 at different concentrations (0.1, 0.3, 1, 3, 10, 30, 50, 100 μg/ml) for 30 minutes and then stained with one of the above antibodies labeled with biotin as described above for five minutes at a concentration of 2.5 μg/ml. Detection was by FITC-labeled streptavidin incubated for 20 minutes. Furthermore, staining was performed as described above (see Example 3). Each staining was done three successive times and the D-value calculated with K-S statistics (see above). The staining of unlabeled control antibody CR2027 is shown by the dotted line staining using the test antibody is depicted with a solid line. CR2113 was able to compete with itself in a dose dependent manner, however none of the other antibodies could compete with biotinylated CR2113 for binding (see FIG. 6A). […] In contrast, unlabeled CR2113 was able to compete for binding of CR2114 (see FIG. 6B), CR2117 (see FIG. 6C) and CR2118 (see FIG. 6D) to B16-CD1a transfectants in a concentration dependent manner. Neither CR2117 nor CR2118 was able to compete with CR2114 for binding to CD1a. This could be due to sub-optimal affinity.

Assay [6] deals with T6, human CD1a. The experiment in a line: competition flow cytometry on B16-CD1a cells: unlabeled antibody for 30 min, then biotin-labeled CR2118 at 2.5 µg/ml, FITC-streptavidin. Here is the method:
as §4

The target of assay [7] is T6, human CD1a. As to the kind of experiment: competition flow cytometry on B16-CD1a cells: unlabeled antibody for 30 min, then biotin-labeled CR2113 at 2.5 µg/ml, FITC-streptavidin. Here is the method:
as §4

T1 sequence (P29016 18-333): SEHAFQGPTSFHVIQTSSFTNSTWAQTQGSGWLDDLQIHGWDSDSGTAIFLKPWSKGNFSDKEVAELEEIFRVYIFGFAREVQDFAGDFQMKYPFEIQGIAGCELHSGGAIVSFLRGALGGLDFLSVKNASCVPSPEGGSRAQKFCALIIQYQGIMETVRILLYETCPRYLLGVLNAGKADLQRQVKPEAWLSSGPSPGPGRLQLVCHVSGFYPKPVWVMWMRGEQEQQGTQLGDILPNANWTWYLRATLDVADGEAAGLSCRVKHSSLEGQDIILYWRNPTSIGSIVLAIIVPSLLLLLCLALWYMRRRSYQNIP
T6 sequence (P06126 17-327): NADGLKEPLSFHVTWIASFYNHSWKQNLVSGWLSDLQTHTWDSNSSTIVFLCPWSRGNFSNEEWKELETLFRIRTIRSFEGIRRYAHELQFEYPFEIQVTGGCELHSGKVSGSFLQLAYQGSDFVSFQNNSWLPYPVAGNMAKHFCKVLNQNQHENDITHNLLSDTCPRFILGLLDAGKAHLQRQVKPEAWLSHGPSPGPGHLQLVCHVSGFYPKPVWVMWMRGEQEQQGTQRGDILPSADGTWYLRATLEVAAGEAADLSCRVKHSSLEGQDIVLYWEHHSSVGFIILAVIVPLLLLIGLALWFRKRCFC

B1: human anti-human CD1a monoclonal antibody CR2114 (antibody, human IgG1, kappa, V domains shown)
VH: EVQLVESGGGLVQPGGSLRLSCAASGFTFSSYSMNWVRQAPGKGLEWVSYISSSSSTIYYADSVKGRFTISRDNAKNSLYLQMNSLRDEDTAVYYCAKETWWQSFDYWGQGTLVTVSS
VL: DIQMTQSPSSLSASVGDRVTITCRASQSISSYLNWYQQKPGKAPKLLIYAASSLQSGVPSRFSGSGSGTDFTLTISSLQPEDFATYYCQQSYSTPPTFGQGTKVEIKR
notes: Fully human IgG1 kappa made from scFv SC02-114; unlabeled or biotinylated; also called 02-114
B1: the binding result is “no binding” in the assay with human CD1b, “binds” with human CD1c, “no binding” with human CD1d and “no binding” in the assay with murine CD1d [2]. Moreover, the D-value with murine CD1d [1] and with murine CD1a was 0 each time.

B2: human anti-human CD1a monoclonal antibody CR2117 (antibody, human IgG1, kappa, V domains shown)
VH: EVQLVESGGGLVHPGGSLRLSCAGSGFTFSSYAMHWVRQAPGKGLEWVSAIGTGGGTYYADSVKGRFTISRDNAKNSLYLQMNSLRAEDTAVYYCARSTPWFSFDYWGQGTLVTVSS
VL: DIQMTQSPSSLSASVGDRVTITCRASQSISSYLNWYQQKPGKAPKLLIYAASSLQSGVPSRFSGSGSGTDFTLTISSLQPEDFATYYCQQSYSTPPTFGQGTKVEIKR
notes: Fully human IgG1 kappa made from scFv SC02-117; unlabeled or biotinylated; also called 02-117
On to B2, for which, in the assay with human CD1a [3], the “EC50 (read off the curve)” value was approximately 2 microgr/ml. The binding result in the assay with human CD1b was “no binding”; with human CD1c, “binds”; with human CD1d, “no binding”; with murine CD1d [2], “no binding”. In addition, the D-value with murine CD1d [1] and with murine CD1a was 0 each time.

B3: human anti-human CD1a monoclonal antibody CR2118 (antibody, human IgG1, kappa, V domains shown)
VH: EVQLVESGGGLVHPGGSLRLSCAGSGFTFSSYAMHWVRQAPGKGLEWVSAISTGGGTYYADSVKGRFTISRDNAKNSLYLQMNSLRAEDTAVYYCARSAWWLSFDSWGQGTLVTVSS
VL: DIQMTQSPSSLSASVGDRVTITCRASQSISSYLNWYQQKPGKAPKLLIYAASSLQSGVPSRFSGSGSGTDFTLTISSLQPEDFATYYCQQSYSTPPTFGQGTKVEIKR
notes: Fully human IgG1 kappa made from scFv SC02-118; unlabeled or biotinylated; also called 02-118
On to B3, for which the binding result was “binds” with human CD1a [4], “no binding” with human CD1b, “no binding” with human CD1d and “no binding” with murine CD1d [2]. Besides, the D-value in the assay with murine CD1d [1] and with murine CD1a was 0 in each case.

B4: human anti-human CD1a monoclonal antibody CR2113 (antibody, human IgG1, kappa, V domains shown)
VH: QVQLQESGAGLLKPSETLSLTCAVYGGSFSGYYWSWIRQPPGKGLEWIGYIYYSGSTNYNPSLKSRVTISVDTSKNQFSLKLSSVTAADTAVYYCAKAPYMMYFDSWGQGTLVTVSS
VL: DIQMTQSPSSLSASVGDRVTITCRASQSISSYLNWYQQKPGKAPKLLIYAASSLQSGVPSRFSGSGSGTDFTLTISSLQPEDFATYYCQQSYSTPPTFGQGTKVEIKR
notes: Fully human IgG1 kappa made from scFv SC02-113, expressed in 293T cells; Used unlabeled, biotinylated or Alexa488-labeled depending on the assay; also called 02-113
With B4, the “IC50 (read off the curve)” value in the assay with human CD1a [5] is approximately 0.5 µg/mL; in the assay with human CD1a [6] it was approximately 0.6 µg/mL; with human CD1a [7] it was approximately 3 µg/mL. In the assay with human CD1a [3], the “EC50 (read off the curve)” value was approximately 0.1 microgr/ml. Moreover, the binding result with human CD1b, with human CD1d and in the assay with murine CD1d [2] was “no binding” throughout. Further, the D-value in the assay with murine CD1d [1] and with murine CD1a was 0 in each case.

B5: human anti-human CD1a monoclonal antibody CR2115 (antibody, human IgG1, V domains shown)
VH: QVQLVQSGAEAKKPGASVKVSCKASGYTFTGYYMHWVRQAPGQGLEWMGWISAYNGNTNYAQKLQGRVTMTTDTSTSTAYMELRSLRSDDTAVYYCARSQMPSYFDYWGQGTLVTVSS
VL: SSELTQDPAVSVALGQTVRITCQGDSLRSYYASWYQQKPGQAPVLVIYGKNNRPSGIPDRFSGSSSGNTASLTITGAQAEDEADYYCNSRDSSGNHVVFGGGTKLTVLG
notes: Fully human IgG1 lambda made from scFv SC02-115; also called 02-115
Take B5: the binding result in the assay with human CD1b, with human CD1d and with murine CD1d [2] was “no binding” throughout. In the assay with murine CD1d [1], this molecule came in with a D-value of 0.
